88 variants from IntAct's records for PubMed 29039417 can be followed below.

B1: Protein PTHB1 (Homo sapiens), Q3SYG4 (parent)
chain: MSLFKARDWWSTILGDKEEFDQGCLCLANVDNSGNGQDKIIVGSFMGYLRIFSPHPAKTGDGAQAEDLLLEVDLRDPVLQVEVGKFVSGTEMLHLAVLHSRKLCVYSVSGTLGNVEHGNQCQMKLMYEHNLQRTACNMTYGSFGGVKGRDLICIQSMDGMLMVFEQESYAFGRFLPGFLLPGPLAYSSRTDSFLTVSSCQQVESYKYQVLAFATDADKRQETEQQKLGSGKRLVVDWTLNIGEQALDICIVSFNQSASSVFVLGERNFFCLKDNGQIRFMKKLDWSPSCFLPYCSVSEGTINTLIGNHNNMLHIYQDVTLKWATQLPHIPVAVRVGCLHDLKGVIVTLSDDGHLQCSYLGTDPSLFQAPNVQSRELNYDELDVEMKELQKIIKDVNKSQGVWPMTEREDDLNVSVVVSPNFDSVSQATDVEVGTDLVPSVTVKVTLQNRVILQKAKLSVYVQPPLELTCDQFTFEFMTPDLTRTVSFSVYLKRSYTPSELEGNAVVSYSRPTDRNPDGIPRVIQCKFRLPLKLICLPGQPSKTASHKITIDTNKSPVSLLSLFPGFASQSDDDQVNVMGFHFLGGARITVLASKTSQRYRIQSEQFEDLWLITNELILRLQEYFEKQGVKDFACSFSGSIPLQEYFELIDHHFELRINGEKLEELLSERAVQFRAIQRRLLARFKDKTPAPLQHLDTLLDGTYKQVIALADAVEENQGNLFQSFTRLKSATHLVILLIALWQKLSADQVAILEAAFLPLQEDTQELGWEETVDAAISHLLKTCLSKSSKEQALNLNSQLNIPKDTSQLKKHITLLCDRLSKGGRLCLSTDAAAPQTMVMPGGCTTIPESDLEERSVEQDSTELFTNHRHLTAETPRPEVSPLQGVSE
partner: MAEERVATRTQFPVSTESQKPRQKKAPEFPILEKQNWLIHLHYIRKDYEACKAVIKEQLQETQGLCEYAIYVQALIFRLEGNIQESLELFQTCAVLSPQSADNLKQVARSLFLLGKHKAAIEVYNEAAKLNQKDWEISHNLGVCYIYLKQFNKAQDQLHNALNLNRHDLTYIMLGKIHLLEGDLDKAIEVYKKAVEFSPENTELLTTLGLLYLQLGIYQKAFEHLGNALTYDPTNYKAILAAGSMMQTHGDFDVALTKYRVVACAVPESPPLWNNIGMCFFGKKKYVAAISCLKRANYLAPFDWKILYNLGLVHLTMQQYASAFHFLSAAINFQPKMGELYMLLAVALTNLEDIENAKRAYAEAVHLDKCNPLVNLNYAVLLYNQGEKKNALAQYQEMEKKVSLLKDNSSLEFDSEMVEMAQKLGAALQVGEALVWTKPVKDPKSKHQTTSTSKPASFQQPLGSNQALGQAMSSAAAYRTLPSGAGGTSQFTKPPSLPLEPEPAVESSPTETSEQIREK

Variants of B1 are the subject of the experiment. Particulars: with bbs4_human BBS4, Q96RK4.
For F756K, the “effect of a mutation on the interaction” value was “with no effect”. Consider F756E, for which the “effect of a mutation on the interaction” value was “with no effect”. For F756A the value was “with no effect”. In the case of L744E, the “effect of a mutation on the interaction” value is reported as “with no effect”. For L744A the value was “with no effect”; for L744K, “with no effect”.

For the variant K789E, the “effect of a mutation on the interaction” value is “with no effect”.

As to K789A, the “effect of a mutation on the interaction” value was “with no effect”. In the case of L736A it was “with no effect”. In the case of L736K it was “with no effect”; in that of L736E, “with no effect”; in that of L727K, “with no effect”. Consider L727P, for which the “effect of a mutation on the interaction” value was “disrupting interaction strength”. For L727E, the “effect of a mutation on the interaction” value was “with no effect”. For L727A the value was “with no effect”. For T782E the value was “with no effect”; for T782K, “with no effect”; for T782A, “with no effect”. As for L779A, the “effect of a mutation on the interaction” value was “with no effect”. Regarding L779K, the “effect of a mutation on the interaction” value is “with no effect”. For L779E the value was “with no effect”; for A775K, “with no effect”.

For A775E, the “effect of a mutation on the interaction” value is on record as “with no effect”. For L759A the value was “with no effect”; for L759E, “with no effect”; for L759K, “with no effect”. In the case of E761A it was “with no effect”.

As for E761K, the “effect of a mutation on the interaction” value is “with no effect”.

As to V772A, the “effect of a mutation on the interaction” value is “with no effect”. In the case of V772K it was “disrupting interaction strength”; in that of V772E, “disrupting interaction strength”; in that of T731I, “disrupting interaction strength”.

Turning to T731A, the “effect of a mutation on the interaction” value is reported as “with no effect”.

With T731K, the “effect of a mutation on the interaction” value was “with no effect”. For T731E the value was “disrupting interaction strength”; for D747E, “with no effect”; for D747A, “disrupting interaction strength”. Regarding D747N, the “effect of a mutation on the interaction” value is “disrupting interaction strength”. On to D747K, for which the “effect of a mutation on the interaction” value was “with no effect”. In the case of S745A it was “with no effect”. For S745E the value was “disrupting interaction strength”; for S745K, “with no effect”. In the case of L757E it was “with no effect”; in that of L757A, “with no effect”; in that of L757K, “with no effect”. For the variant S787A, the “effect of a mutation on the interaction” value is given as “with no effect”. For S787K the value was “with no effect”; for S787E, “with no effect”; for K728A, “with no effect”. For K728E the value was “with no effect”. With K728R, the “effect of a mutation on the interaction” value is “disrupting interaction strength”. In the case of A754K it was “with no effect”. Turning to A754E, the “effect of a mutation on the interaction” value is reported as “with no effect”.

S729E: the “effect of a mutation on the interaction” value is “with no effect”. For the variant S729K, the “effect of a mutation on the interaction” value is “with no effect”. In the case of S729A, the “effect of a mutation on the interaction” value is listed as “with no effect”. As to I738A, the “effect of a mutation on the interaction” value is on record as “disrupting interaction strength”. Turning to I738K, the “effect of a mutation on the interaction” value is reported as “disrupting interaction strength”. As for I738E, the “effect of a mutation on the interaction” value was “disrupting interaction strength”.

As to Q760K, the “effect of a mutation on the interaction” value was “with no effect”. In the case of Q760A it was “with no effect”; in that of Q760E, “with no effect”; in that of L766C, “disrupting interaction strength”. In the case of L766K it was “with no effect”; in that of L766A, “with no effect”.

Regarding L766E, the “effect of a mutation on the interaction” value is reported as “with no effect”. H732E: the “effect of a mutation on the interaction” value is “with no effect”. Take H732A: the “effect of a mutation on the interaction” value is recorded as “with no effect”. As for H732K, the “effect of a mutation on the interaction” value is given as “with no effect”. For W741A, the “effect of a mutation on the interaction” value was “with no effect”. In the case of W741E, the “effect of a mutation on the interaction” value is listed as “with no effect”. As to W741K, the “effect of a mutation on the interaction” value is on record as “with no effect”. On to Q764K, for which the “effect of a mutation on the interaction” value is recorded as “with no effect”.

Q764A: the “effect of a mutation on the interaction” value is “with no effect”. As to Q764E, the “effect of a mutation on the interaction” value was “with no effect”. Regarding Q748K, the “effect of a mutation on the interaction” value was “disrupting interaction strength”.

On to Q748L, for which the “effect of a mutation on the interaction” value is reported as “disrupting interaction strength”.

Regarding Q748A, the “effect of a mutation on the interaction” value is given as “disrupting interaction strength”. In the case of Q748E it was “with no effect”; in that of S788A, “with no effect”; in that of S788E, “with no effect”. In the case of S788K it was “with no effect”. In the case of V734K, the “effect of a mutation on the interaction” value is recorded as “with no effect”.

Turning to V734A, the “effect of a mutation on the interaction” value is “with no effect”. Consider V734E, for which the “effect of a mutation on the interaction” value is “with no effect”. On to W768E, for which the “effect of a mutation on the interaction” value is given as “with no effect”. In the case of W768K it was “with no effect”; in that of W768A, “with no effect”.
